Laboratory results from patent US20070036810A1, “Cyclic amp response element activator proteins and uses related thereto” (priority 2003, published 2007).

How the values were obtained:
Format in all cases: cell-based
[1] = system: GAL4 DNA binding sites (UAS-Luc, pFR-Luc reporter); assay: GAL4 DNA binding domain fusion transactivation assay (pFR-Luc) in HEK 293 cells; settings: normalized to pCMV-BD vector
Source text: To determine if CREAP proteins can act as a transcription activators, various regions of all 3 CREAP homologs (amino acids 300-650 of CREAP1, amino acids 296-694 of CREAP2 and amino acids 335-635 of CREAP3) were expressed as fusion proteins with the DNA binding domain of GAL4 and tested for the ability to activate expression of a reporter gene linked to GAL4 protein binding sequences (UAS-Luc (pFR-Luc reporter). Briefly, the indicated regions of CREAP1, CREAP2 and CREAP3 were amplified by PCR and subcloned in frame into pCMV-BD vector (Stratagene) encoding GAL4 DNA binding domain. Selected plasmids and empty vector (pCMV-SPORT6) were transfected into HEK 293 cells at 75 ng/well using Fugene6 transfection reagent (Roche) as described above. pFR-Luc reporter (Stratagene) encoding firefly luciferase gene driven by minimal promoter linked to 5 concatamerized GAL4 binding sites (UAS) was co-transfected at 100 ng/well. As a positive control, the reporter was also co-transfected with a plasmid encoding GAL4-CREB fusion protein (Stratagene) alone or in the presence of pFC-PKA an expression construct encoding catalytic subunit of protein kinase A (Stratagene) to activate the CREB kinase inducible activation domain. Fold induction was compared to the reporter's activity measured in the cells transfected with pCMV-BD an expression vector carrying GAL4 DNA binding domain only. […]

GAL4-CREB fusion protein = assay: GAL4-CREB activation assay in HLR cell line; settings: HLR cell line with integrated pFR-Luc reporter, normalized to pCMV-BD vector
Method: To determine if CREAP proteins can directly activate CREB1 protein, the expression constructs of CREAP1, CREAP2 and CREAP3 were transfected individually or with GAL4-CREB plasmid (Stratagene) into HLR cell line (Stratagene) carrying genomic DNA integrated copies of pFR-Luc reporter. Briefly, HLR cells were maintained per manufacturer's instructions. Selected plasmids and either empty vector (pCMV-BD) or GAL4-CREB plasmid were transfected at 75 ng/well using Fugene6 transfection reagent (Roche) as described above. As a positive control pFC-PKA an expression construct encoding catalytic subunit of protein kinase A (Stratagene) was also co-trasfected with GAL4-CREB. Fold of activation was compared to the reporter's activity measured in the cells transfected with empty vector.
The ability of full length CREAP1, CREAP2 and CREAP3 to induce the activity of GAL4-CREB fusion protein (Stratagene) was tested. The data presented are normalized to the value seen with pCMV-BD vector. […] Note the fold induction obtained with positive control is lower when compared to the data from Table 6 when all the plasmids including the reporter were transiently transfected.

human IL-8 promoter = assay: pGL2-IL-8p-Luc reporter inducibility in HEK 293 cells; settings: HEK 293 cells treated with 50 ng/ml for 16 hours
Method: A luciferase reporter controlled by a 1.5 kB IL-8 promoter containing fragment of human IL-8 promoter was tested for inducibility by known regulators of cytokine-mediated gene expression. pNF-κB-Luc (BD Biosciences) and pGL2-IL-8p-Luc reporters were co-transfected into HEK 293 cells with expression constructs encoding known activators of the NF-κB pathway, truncated MEKK (AA 360-672) (Stratagene) and a full length TRAF6 cDNA made according to conventional methods using a proprietary clone collection. Cells co-transfected with empty pCMV-Sport6 vector were either left untreated or treated with TNFα (50 ng/ml, for 16 hours). Luciferase activity was measured 48 hours post transfection. The pNF-κB-Luc reporter was used as a positive control.

[2] = system: secreted IL-8 protein from HeLa cells; assay: IL-8 Elisa assay in HeLa cells; settings: after transfection
Method: HeLa cells are transfected with DNA samples selected from the group of sequence verified and confirmed hits at 100 ng per well in 96 well plates (Costar) using the protocol described above. DNA samples designated as co-activators are co-transfected at 25 ng per well. Empty vector pCMV-Sport6 is used as a negative control. 72 hours post-transfection IL-8 content is measured in the cell growth media in prediluted aliquots corresponding to 1 to 5 μl of conditioned growth media using an IL-8 Elisa kit (Sigma) following the provided protocol. As a positive control, growth media is collected from the cells transfected with empty vector and treated with IL-1β and TNFα (R&D Systems) at 5 ng/ml and 50 ng/ml respectively for 16 hours prior to collection of the growth media for the IL-8 assay.

Substance: GAL4-CREB: plasmid encoding GAL4-CREB fusion protein (Stratagene) [reference compound]
- Fold Induction [1]: 7.66
- Fold Induction (GAL4-CREB fusion protein): 75.55

Substance: TNFα [reference compound]
- increase of IL-8 promoter-reporter activity (human IL-8 promoter): 4.7 times

Substance: relA: subunit of NF-κB transcription factor, expression construct [reference compound]
- accumulation of secreted IL-8 protein [2]: induced small increases
